Reference: patent US20230190868A1 (NATIONAL UNIVERSITY OF SINGAPORE, published 2023)

Biological target: T1, cell-surface GRP78 (csGRP78) on mouse alveolar macrophages (primary AMs; MH-S cells) (mouse, UniProt P20029 20-655)
T1 construct: whole, on cells; Endogenous protein on mouse cells; the species follows from the cells used; also called Glucose-Regulated Protein 78 kDa
Assay: confocal immunofluorescence on non-permeabilized primary alveolar macrophages, 1 µM rISM1
Procedure: Cell-surface GRP78 (csGRP78) has been previously detected on mouse peritoneal macrophages (Misra, Gonzalez-Gronow et al., 2005) and human monocytes (Lu, Lai et al., 2010). Primary AMs were treated with recombinant ISM1 (rISM1) to determine if csGRP78 is present and serves as an ISM1 receptor on AMs. It was observed that rISM1 binds to csGRP78 on non-permeabilized AMs (FIG. 6C) and co-localized with GRP78 intracellularly (FIG. 6D), leading to AM apoptosis (FIG. 2K and FIG. 6E). Similarly, rISM1 induced apoptosis in immortalized mouse AM cells (MH-S) upon thapsigargin (TG) pretreatment (FIG. 6F), an ER stress inducer known to promote GRP78 translocation to the cell surface (Li, Ni et al., 2008). […] Increased AMs in Ism1^{Δ/Δ} lungs contributed towards protease-antiprotease imbalance, thus leading to spontaneous COPD in Ism1^{Δ/Δ} mice under ambient air.
(FIG. 6C). […] In FIG. 6C, representative confocal images of primary AMs for rISM1 (red) and GRP78 (green) co-localization after 1 µM rISM1 treatment for 1 hour are shown (Nuclei were stained with DAPI (blue)). Further, mouse AM cell line MH-S cells undergo ISM1 induced apoptosis when the cells were pre-treated with thapsigargin (TG), which induce ER stress and upregulate csGRP78. Denatured ISM1 (boiled) lost this pro-apoptotic function, indicating this pro-apoptotic activity is a function of the ISM1 protein. […]

T1 sequence (P20029 20-655): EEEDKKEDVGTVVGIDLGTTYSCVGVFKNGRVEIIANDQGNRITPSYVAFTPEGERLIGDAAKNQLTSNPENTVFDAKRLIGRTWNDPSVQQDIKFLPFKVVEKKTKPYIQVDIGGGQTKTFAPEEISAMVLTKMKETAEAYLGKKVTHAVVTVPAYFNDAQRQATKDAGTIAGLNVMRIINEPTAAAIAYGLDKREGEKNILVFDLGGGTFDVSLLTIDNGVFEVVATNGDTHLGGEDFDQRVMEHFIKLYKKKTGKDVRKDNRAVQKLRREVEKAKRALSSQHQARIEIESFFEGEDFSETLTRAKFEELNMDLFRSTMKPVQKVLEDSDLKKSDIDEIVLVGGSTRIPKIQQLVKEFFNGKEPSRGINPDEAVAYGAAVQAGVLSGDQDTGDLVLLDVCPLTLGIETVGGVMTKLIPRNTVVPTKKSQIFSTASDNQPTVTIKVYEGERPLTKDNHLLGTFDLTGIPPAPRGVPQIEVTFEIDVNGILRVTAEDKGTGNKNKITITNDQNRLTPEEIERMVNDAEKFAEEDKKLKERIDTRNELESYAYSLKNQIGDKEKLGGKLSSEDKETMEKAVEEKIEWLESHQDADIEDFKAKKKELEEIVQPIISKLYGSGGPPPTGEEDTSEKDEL

- binding result: binds
B1: recombinant ISM1 (rISM1), mouse mature form without signal peptide, 6xHis-tagged, expressed in E. coli (vector pET-M) (ligand)
chain: SDRQDAAAGNVSGSQLQNNLNLESDSTSETSFPLSKEAPEEHQVVHQPFPRQRFPPETGHPSLQRDGPRSFLLDLPNFPDLSKADINGQNPNIQVTIEVVDGPDSEAEKDQHPENKPSWSLPAPDWRAWWQRSLSLARTNSGDQDDKYDSTSDDSNFLSVPRGWDRPAPGHRTFETKEQPEYDSTDGEGDWSLWSVCSVTCGNGNQKRTRSCGYACIATESRTCDRPNCPGIEDTFRTAATEVSLLAGSEEFNATKLFEVDMDSCERWMSCKSEFLKKYMHKVINDLPSCPCSYPTEVAYSTADIFDRIKRKDFRWKDASGPKEKLEIYKPTARYCIRSMLSLESTTLAAQHCCYGDNMQLITRGKGAGTPNLISTEFSAELHYKVDVLPWIICKGDWSRYNEARPPNNGQKCTESPSDEDYIKQFQEAREYLEHHHHHH
notes: also called mouse rISM1
